Assay results taken from patent US20160046707A1 (EISAI R AND D MANAGEMENT, published 2016).
Substitutions are numbered along the chain they refer to. Blank lines part the entries; values can stand above or below the binder they belong to.

What was measured:
Assay in all cases: cell-based or functional assay
[1] = molecular target: T1, recombinant human CCL20 (R&D Systems, #360-MP-025/CF) (human, UniProt P78556 27-96)
[2] = molecular target: T1, recombinant human CCL20 (R&D Systems, …); remark: listed apart in the source
[3] = molecular target: T1, recombinant human CCL20 (R&D Systems, …); remark: listed apart in the source

T1 sequence (P78556 other isoform, or with tags, fused parts or gaps limits assumed): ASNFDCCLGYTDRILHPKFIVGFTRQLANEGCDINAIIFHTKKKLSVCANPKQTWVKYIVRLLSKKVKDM

IC50 of chemotaxis inhibition [1]: 1.36 nM | IC90 of chemotaxis inhibition [2]: 4.86 nM | IC95 of chemotaxis inhibition [3]: 9.02 nM
B1: humanized anti-human CCL20 antibody 36LK3/42HKK1 (antibody, human IgG1, kappa, V domains shown)
VH: QVQLVQSGAEVKKPGASVKVSCKASGYTFTSYWMHWVRQAPGQGLEWMGLIDPSDKYTNYNQKFKGRVTMTRDTSTSTVYMELSSLRSEDTAVYYCARGNYGVDYGMDYWGQGTLVTVSS
VL: DIQMTQSPSSLSASVGDRVTITCGASENIYGALNWYQRKPGKAPKLLIYGATNLADGVPSRFSGSGSGRDYTLTISSLQPEDFATYYCQNVLITPYTFGQGTKLEIKR

IC50 of chemotaxis inhibition [1]: 1.13 nM | IC90 of chemotaxis inhibition [2]: 4.6 nM | IC95 of chemotaxis inhibition [3]: 8.38 nM
B2: humanized anti-human CCL20 antibody 36LK3/36HC3 (antibody, human IgG1, kappa, V domains shown)
VH: QVQLVQSGAEVKKPGASVKVSCKASGYTFTNYWMHWVKQAPGQGLEWIGVIDPSDSYTTYNQKFKGKATMTRDTSTSTVYMELSSLRSEDTAVYYCTRGNYGVDYAMDYWGQGTSVTVSS
VL: B1 VL

IC50 of chemotaxis inhibition [1]: 1.66 nM | IC90 of chemotaxis inhibition [2]: 6.54 nM | IC95 of chemotaxis inhibition [3]: 15.3 nM
B3: humanized anti-human CCL20 antibody 36LK3/42HKK2 (antibody, human IgG1, kappa, V domains shown)
VH: B1 VH with M70L, R72V, A97T
VL: B1 VL

IC50 of chemotaxis inhibition [1]: 1.33 nM | IC90 of chemotaxis inhibition [2]: 6.34 nM
B4: 36LC3/36HC3 (antibody, human IgG1, kappa, V domains shown)
VH: B2 VH
VL: B1 VL with G24R, R38Q, D70Q, T72S, Q100G

IC50 of chemotaxis inhibition [1]: 1.47 nM | IC90 of chemotaxis inhibition [2]: 5.65 nM | IC95 of chemotaxis inhibition [3]: 10.8 nM
B5: humanized anti-human CCL20 antibody 36LK3/42HKK3 (antibody, human IgG1, kappa, V domains shown)
VH: B1 VH with R67K, V68A, M70L, R72V, V79A, A97T
VL: B1 VL

IC50 of chemotaxis inhibition (block of heavy chains 36HKK1 to 36HKK3) [1]: 1.31 nM | IC50 of chemotaxis inhibition (block of heavy chains 36HKK3, 36HC2, 36HC3) [1]: 1.21 nM
B6: humanized anti-human CCL20 antibody 36LK3/36HKK3 (antibody, human IgG1, kappa, V domains shown)
VH: B2 VH with K38R, I48M, M70L, R72V, V79A, S115L
VL: B1 VL

IC50 of chemotaxis inhibition [1]: 1.26 nM | IC90 of chemotaxis inhibition [2]: 4.33 nM | IC95 of chemotaxis inhibition [3]: 9.75 nM
B7: humanized anti-human CCL20 antibody 36LC3/36HKK3 (antibody, human IgG1, kappa, V domains shown)
VH: B2 VH with K38R, I48M, M70L, R72V, V79A, S115L
VL: B1 VL with G24R, R38Q, D70Q, T72S, Q100G
